The target in the data set is SARS-CoV-2 spike protein (SARS-CoV-2, UniProt P0DTC2). The data set is described as follows: spectroscopic ellipsometry, immobilised aptamer; PBS (137 mM NaCl, 2.7 mM KCl, 10 mM phosphate, pH 7.4); […]. As to conditions: protein: commercial; chain copies: 3.

B1: spike aptamer (ssDNA)
DNA: CAGCACCGACCTTGTGCTTTGGGAGTGCTGGTCCAAGGGCGTTAATGGACA
modifications: 5' amine
For the molecule B1, the binding result is reported as “binds”.

The values above are taken from article PMC10385375, “In Situ Monitoring of Aptamer–Protein Binding on a ZnO Surface Using Spectroscopic Ellipsometry”.
